In the supplement of paper PMC10065799, “High-throughput profiling of sequence recognition by tyrosine kinases and SH2 domains using bacterial peptide display” (eLife, 2023):

These sequences were tested against FGFR3 (UniProt P22607) (assay: phosphorylation enrichment, bacterial display (enrichment ratio); higher = better substrate or ligand; peptides without Tyr show the background).
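Note: 11-residue human phosphosite peptides and single-mutation variants displayed on the E. coli surface, counted by deep sequencing, each peptide's frequency after selection divided by its frequency in the unselected input library; frequency after pTyr selection over input frequency; kinase dosed for 20-30% of maximal phosphorylation in three min.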

FGFR3, sequence (P22607 whole entry, looked up): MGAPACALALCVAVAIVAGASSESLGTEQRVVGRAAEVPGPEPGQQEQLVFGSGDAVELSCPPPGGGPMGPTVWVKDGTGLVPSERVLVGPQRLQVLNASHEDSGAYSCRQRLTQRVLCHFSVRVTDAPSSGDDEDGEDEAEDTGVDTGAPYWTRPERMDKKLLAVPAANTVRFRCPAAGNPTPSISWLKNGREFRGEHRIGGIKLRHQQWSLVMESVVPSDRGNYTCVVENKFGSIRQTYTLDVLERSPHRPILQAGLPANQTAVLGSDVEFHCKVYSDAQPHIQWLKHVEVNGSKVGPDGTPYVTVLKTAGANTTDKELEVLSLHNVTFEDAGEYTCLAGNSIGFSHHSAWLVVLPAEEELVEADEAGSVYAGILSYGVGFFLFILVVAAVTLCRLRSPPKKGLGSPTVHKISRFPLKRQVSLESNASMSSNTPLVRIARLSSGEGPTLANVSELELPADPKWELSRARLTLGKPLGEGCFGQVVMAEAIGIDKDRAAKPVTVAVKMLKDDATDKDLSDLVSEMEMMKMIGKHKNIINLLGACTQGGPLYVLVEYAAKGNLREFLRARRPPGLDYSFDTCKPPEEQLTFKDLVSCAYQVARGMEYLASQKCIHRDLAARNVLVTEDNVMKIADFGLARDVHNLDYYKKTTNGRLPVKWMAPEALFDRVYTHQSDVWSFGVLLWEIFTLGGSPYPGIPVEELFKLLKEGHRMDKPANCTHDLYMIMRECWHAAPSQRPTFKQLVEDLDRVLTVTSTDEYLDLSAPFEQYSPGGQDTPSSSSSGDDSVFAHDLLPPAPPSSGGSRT

Sequence	phosphorylation enrichment
RSDSTYRMSAT [NHS_Y1532_S1531T]	0.637
SQQTYYPVSNM [ABCD1_Y181_R182P]	10.5
IRDENYGEGSS [ACO2_Y665_G661R]	0.559
HNLFSYPTKFE [MYO3A_Y1396_H1400Y_YF]	0.752
KLSFSYGRALQ [ALDOB_Y302]	0.642
ALAQKYHGGGG [HBB_Y146_H144Q]	0.497
QKTGDYFDLFG [PTPN11_Y62_N58K_YF]	17
AKKMKYFEGVS [PRKDC_Y682_I680M]	0.434
RNIQQYNSFVS [PRKAR1A_Y373]	0.787
RRGMPYGGLGD [TGM1_Y312_R315L]	0.443
FIRKDYEACKA [BBS4_Y48_YF]	0.592
TESNNYIYTTL [FAM83B_Y637_K640T]	1.92
WQQQSYLGSGI [CTNNB1_Y30_D32G]	0.493
LQLLGYRPVFS [CHST6_Y358_YF]	0.707
YISLIYTNYEA [GSTP1_Y109]	3.6
DRLASYLDKMR [KRT17_Y98_V102M]	0.513
NSVLVYRNGDP [DCDC2_Y22_K17N]	0.533

Sequence	phosphorylation enrichment
WAFNLYDINKY [KCNIP3_Y174_D179Y]	0.725
GPGLVYGVANK [FLNB_Y1833]	0.483
KNNDGYTDYAE [MCFD2_Y135_I136T]	0.597
GTGTAYLCGVK [ALPL_Y117_A114G]	0.489
LEDPMYDIIRD [RP9_Y142_H137L]	1.29
PFAEPYADFGG [APBA1_Y187_S184A_YF]	0.802
VRFMEYETQVK [TARDBP_Y155_T153M]	0.694
DDHFTYSRFPW [LY75_Y888_YF]	0.797
MRALIYNSSTV [PLEKHA7_Y243_A248V]	0.57
ILNANCMAKRL [GLDC_Y839_Y839C]	0.403
QDRTFYESVRT [SPEN_Y633_YF]	0.686
MACDRYVAICS [OR8D4_Y123]	0.503
LFCLHYFHRTF [SRD5A2_Y91_V89L]	1.46
RGNKEYKEEKR [LENG1_Y96_E97K]	0.735
ASKEPYFVRCI [MYO1D_Y585_YF]	0.93
SFTDPYAQPSL [KMT2D_Y2378_P2382S_YF]	0.67

These sequences were tested on Fer (mouse) in the same assay as above.

Sequence	phosphorylation enrichment
RSDSTYRMSAT [NHS_Y1532_S1531T]	0.587
SQQTYYPVSNM [ABCD1_Y181_R182P]	0.946
IRDENYGEGSS [ACO2_Y665_G661R]	0.588
HNLFSYPTKFE [MYO3A_Y1396_H1400Y_YF]	0.562
KLSFSYGRALQ [ALDOB_Y302]	0.413
ALAQKYHGGGG [HBB_Y146_H144Q]	0.296
QKTGDYFDLFG [PTPN11_Y62_N58K_YF]	0.434
AKKMKYFEGVS [PRKDC_Y682_I680M]	0.311
RNIQQYNSFVS [PRKAR1A_Y373]	0.534
RRGMPYGGLGD [TGM1_Y312_R315L]	0.456
FIRKDYEACKA [BBS4_Y48_YF]	0.49
TESNNYIYTTL [FAM83B_Y637_K640T]	2.64
WQQQSYLGSGI [CTNNB1_Y30_D32G]	0.389
LQLLGYRPVFS [CHST6_Y358_YF]	0.57
YISLIYTNYEA [GSTP1_Y109]	1.72
DRLASYLDKMR [KRT17_Y98_V102M]	0.436
NSVLVYRNGDP [DCDC2_Y22_K17N]	0.373

Sequence	phosphorylation enrichment
WAFNLYDINKY [KCNIP3_Y174_D179Y]	3.29
GPGLVYGVANK [FLNB_Y1833]	0.51
KNNDGYTDYAE [MCFD2_Y135_I136T]	0.381
GTGTAYLCGVK [ALPL_Y117_A114G]	0.511
LEDPMYDIIRD [RP9_Y142_H137L]	6.19
PFAEPYADFGG [APBA1_Y187_S184A_YF]	0.38
VRFMEYETQVK [TARDBP_Y155_T153M]	0.418
DDHFTYSRFPW [LY75_Y888_YF]	0.609
MRALIYNSSTV [PLEKHA7_Y243_A248V]	0.51
ILNANCMAKRL [GLDC_Y839_Y839C]	0.342
QDRTFYESVRT [SPEN_Y633_YF]	8.88
MACDRYVAICS [OR8D4_Y123]	0.475
LFCLHYFHRTF [SRD5A2_Y91_V89L]	0.888
RGNKEYKEEKR [LENG1_Y96_E97K]	0.303
ASKEPYFVRCI [MYO1D_Y585_YF]	0.569
SFTDPYAQPSL [KMT2D_Y2378_P2382S_YF]	0.447
